Results: patent US20260258155A1 (TRIVENI BIO, published 2026)
Positions count from the first letter of the chain named.

B1: KLK7-L3-Ab1 (antibody, V domains shown)
VH: QVQLVQSGAEVKKPGSSVKVSCKASGGTFSNYAISWVRQAPGQGLEWMGGIIPIFGTANYAQKFQGRVTITADESTSTAYMELSSLRSEDTAVYYCARGAPNYYGSSSSRGIAFDIWGQGTMVTVSS
VL: DIQMTQSPSSVSASVGDRVTITCRASQGISSWLAWYQQKPGKAPKLLIYAASSLQSGVPSRFSGSGSGTDFTLTISSLQPEDFATYYCVQANAFPYTFGGGTKVEIK
B2: KLK7-L4-Ab1 (antibody, V domains shown)
VH: QLQLQESGPGLVKPSETLSLTCTVSGGSISSSSYYWGWIRQPPGKGLEWIGSISYSGSTYYNPSLKSRVTISVDTSKNQFSLKLSSVTAADTAVYYCARGAPTYFGAASHYYYYMDVWGKGTTVTVSS
VL: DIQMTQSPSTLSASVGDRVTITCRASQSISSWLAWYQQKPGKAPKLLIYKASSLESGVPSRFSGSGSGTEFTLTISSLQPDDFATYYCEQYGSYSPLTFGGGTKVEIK
B3: KLK7-L1-Ab8 (antibody, V domains shown)
VH: QVQLVQSGAEVKKPGASVKVSCKASGYTFTSEGIHWVRQAPGQGLEWMGSISASSGDTNYAQKLQGRVTMTTDTSTSTAYMELRSLRSDDTAVYYCARSAGYGARHWYFDLWGQGTMVTVSS
VL: DIQMTQSPSSLSASVGDRVTITCRASQSISSYLNWYQQKPGKAPKLLIYGASSLQSGVPSRFSGSGSGTDFTLTISSLQPEDFATYYCDQWYSTPPITFGGGTKVEIK
B4: KLK5-L2-Ab1 (antibody, V domains shown)
VH: QLQLQESGPGLVKPSETLSLTCTVSGGSISSSSYYWGWIRQPPGKGLEWIGSISYSGSTYYNPSLKSRVTISVDTSKNQFSLKLSSVTAADTAVYYCARGEYDRSYYYYGMDVWGQGTTVTVSS
VL: not shown
B5: KLK5-L2-Ab2 (antibody, V domains shown)
VH: B4 VH with S30P, G37A, S52N, S54Y, Y106A, Y107L
VL: not shown
B6: KLK5-L1-Ab1 (antibody, V domains shown)
VH: EVQLVESGGGLVQPGGSLRLSCAASGFTFSSYSMNWVRQAPGKGLEWVSYISSSSSTIYYADSVKGRFTISRDNAKNSLYLQMNSLRAEDTAVYYCARDLTSMQSRDYYYYGMDVWGQGTTVTVSS
VL: B1 VL with V89Q, A91V, N92P, A93I
B7: KLK5-L3-Ab2 (antibody, V domains shown)
VH: QVQLVQSGAEVKKPGSSVKVSCKASGGTFSGYSISWVRQAPGQGLEWMGLIFPISGTANYAQKFQGRVTITADESTSTAYMELSSLRSEDTAVYYCARGSASGYYDRSYYYYGMDVWGQGTTVTVSS
VL: B1 VL with V89Q, A91V, N92S, A93S
B8: KLK5-L3-Ab4 (antibody, V domains shown)
VH: B7 VH with S30N, G31N, S33H, L50G, F52I, I54P, S55F, N59H, S100E, M114L
VL: B1 VL with V89Q, A91V, N92S, A93S
B9: KLK5-L3-Ab3 (antibody, V domains shown)
VH: B7 VH with S30N, G31N, S33H, L50G, F52I, I54P, S55F, N59H
VL: B1 VL with V89Q, A91V, N92S, A93S
B10: KLK5-L3-Ab5 (antibody, V domains shown)
VH: B7 VH with G99Q, Y111R
VL: B1 VL with V89Q, A91V, N92S, A93S
B11: KLK5-L3-Ab1 (antibody, V domains shown)
VH: B7 VH with S16A, G27Y, S30T, S33Y, I34M, S35H, L50G, F52I
VL: B1 VL with V89Q, A91V, N92S, A93S

target: T1, mouse KLK7 (mKLK7) (mouse, UniProt Q91VE3 26-249); test: Biacore SPR, antibody captured on Protein A chip, single-cycle kinetics, 25 C
T1 construct: Enzymatically active in the protease assay
T1 sequence (Q91VE3 26-249 limits assumed): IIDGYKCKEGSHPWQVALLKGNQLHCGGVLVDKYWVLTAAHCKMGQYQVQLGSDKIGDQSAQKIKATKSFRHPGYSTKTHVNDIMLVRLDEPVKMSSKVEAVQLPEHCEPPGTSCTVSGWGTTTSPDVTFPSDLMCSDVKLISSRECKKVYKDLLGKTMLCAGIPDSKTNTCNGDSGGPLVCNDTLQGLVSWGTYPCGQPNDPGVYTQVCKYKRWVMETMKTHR
Procedure: (§1) All screening assays were performed at 25 C. The running buffer used was 20 mM HEPES, 300 mM NaCl, 0.01% Tween-20, pH 7.5. Antibodies (1 ug/mL) were captured on Fc2-4 of a Series S ProteinA Sensor Chip (Cytiva) flowing at 10 ul/mL for 30 s. Kinetics measurements were made in single-cycle kinetics mode with a series of 4-5 concentrations with top concentration of 25-100 nM and serial dilution 4-fold. Contact time was typically 300 s and dissociation time ranged from 1800-3600 s. Flow rate of 30 ul/mL was typically used. The sensor chip was regenerated with 10 mM glycine, pH 1.5 with a contact time of 30 s flowing at 50 ul/mL.

Kd [nM] | Binder
9.03 | B1
6 | B2
0.0569 | B3

target: T2, human KLK7 (hKLK7), active form (human, UniProt P49862 30-253); test: as above
T2 construct: mature; also called active human KLK7
T2 sequence (P49862 30-253): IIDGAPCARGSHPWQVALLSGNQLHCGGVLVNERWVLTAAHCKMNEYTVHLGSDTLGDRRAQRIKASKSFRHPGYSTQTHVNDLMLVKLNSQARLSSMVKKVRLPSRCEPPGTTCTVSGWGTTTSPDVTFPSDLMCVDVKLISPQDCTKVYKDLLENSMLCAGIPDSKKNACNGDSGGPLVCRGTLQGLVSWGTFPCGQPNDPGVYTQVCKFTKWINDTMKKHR
Procedure: as §1

Kd [nM] | Binder
0.0205 | B1
0.219 | B2
0.01 | B3

target: T1, mouse KLK7 (mKLK7); test: cell-based or functional assay

mKLK7 IC50 (protease inhibition) [nM] | mKLK7 IC90 (protease inhibition) [nM] | Binder
10.9 | 212 | B1
16.3 | 118 | B2
1.1 | 5.3 | B3

target: T2, human KLK7 (hKLK7), active form; test: cell-based or functional assay

hKLK7 IC50 (protease inhibition) [nM] | hKLK7 IC90 (protease inhibition) [nM] | Binder
0.37 | 10.5 | B1
0.52 | 14.9 | B2
0.767 | 3.95 | B3

target: T3, mouse KLK5 (mKLK5) (mouse); test: Biacore SPR, antibody captured on Protein A chip, single-cycle kinetics, 25 C
T3 construct: Enzymatically active in the protease assay
Procedure: as §1

Kd [nM] | Binder
20.5 | B4
0.44 | B5
4.44 | B6
3.8 | B7
8.8 | B8
7.2 | B9
3.4 | B10
16.6 | B11

target: T4, human KLK5 (hKLK5), active form (human, UniProt Q9Y337 67-293); test: as above
T4 construct: mature; also called active human KLK5
Procedure: as §1

Kd [nM] | Binder
2.53 | B4
0.003 | B5
0.783 | B6
2.62 | B11

target: T3, mouse KLK5 (mKLK5); test: cell-based or functional assay

mKLK5 IC50 (protease inhibition) [nM] | mKLK5 IC90 (protease inhibition) [nM] | Binder
45.9 | 93.2 | B4
2.21 | 13.1 | B5
29.4 | 103 | B6
15 | 91.3 | B7
8.27 | 83.2 | B8
14.9 | 87 | B9
4.44 | 28.4 | B10
81.3 | 130 | B11

target: T4, human KLK5 (hKLK5), active form; test: cell-based or functional assay

hKLK5 IC50 (protease inhibition) [nM] | hKLK5 IC90 (protease inhibition) [nM] | Binder
11 | 92.9 | B4
1.71 | 8.46 | B5
3.45 | 83.1 | B6
4.45 | 24 | B7
1.76 | 9.81 | B8
2.81 | 11.1 | B9
2.58 | 10.6 | B10
12.7 | 112 | B11
